Results reported in patent US20030192074A1.

Experiments:
[1] = target: AvrMla1 avirulence gene product of Erysiphe graminis f. sp. hordei (Erysiphe (=Blumeria) graminis f sp hordei)
[2] = target: AvrMla6 avirulence gene product of Erysiphe graminis f. sp. hordei (Erysiphe (=Blumeria) graminis f sp hordei)
[3] = target: AvrMla6 avirulence gene product of Erysiphe graminis f. sp. hordei (Erysiphe (=Blumeria) graminis f sp hordei); remark: listed apart in the source

**Q.** Which results are given for “MLA1 polypeptide (product of R gene A, Mla1, of barley line CI-16137, AlgR Mla1)”?
**A.** percent of GFP-Mlo expressing cells with an attached spore that support a fungal colony (3-component single-cell assay, mlo-5 barley leaves, isolate K1) [1]: 9.3%; percent of GFP-Mlo expressing cells with an attached spore that support a fungal colony (3-component single-cell assay, mlo-5 barley leaves, isolate A6) [2]: 47.1%; percent of GUS stained wheat (CERCO) cells with an attached spore that contain haustorium, isolate A6 [3]: 23.9%

**Q.** Which percent of GFP-Mlo expressing cells with an attached spore that support a fungal colony (3-component single-cell assay, mlo-5 barley leaves, isolate K1) [1] does the source give for “MLA6 polypeptide (product of Mla6 of barley line C.I. 16151)” here?
**A.** Its percent of GFP-Mlo expressing cells with an attached spore that support a fungal colony (3-component single-cell assay, mlo-5 barley leaves, isolate K1) is 46.5%.

**Q.** And the percent of GFP-Mlo expressing cells with an attached spore that support a fungal colony (3-component single-cell assay, mlo-5 barley leaves, isolate A6) [2]?
**A.** Its percent of GFP-Mlo expressing cells with an attached spore that support a fungal colony (3-component single-cell assay, mlo-5 barley leaves, isolate A6) is 9.4%.

**Q.** And the percent of GUS stained wheat (CERCO) cells with an attached spore that contain haustorium, isolate A6 [3]?
**A.** Its percent of GUS stained wheat (CERCO) cells with an attached spore that contain haustorium, isolate A6 is 9.2%.
